Experimental data taken from paper PMC6906530, “Structural studies of the MMP-3 interaction with triple-helical collagen introduce new roles for the enzyme in tissue remodelling” (Scientific Reports, 2019).

Key:
[1] = biological target: collagen I (Guinea pig dermis) (Guinea pig)
collagen I = settings: 10:1 molar excess over collagen; cited from earlier work
Description: In both models of collagen fibril assembly, a number of MMP-3 binding sites are concealed, consistent with the observed inhibition of fibrillogenesis in the presence of MMP-3 (Fig. 4g).

Sequence of collagen I (Guinea pig dermis) (Guinea pig) (main, as listed by the source, chain 1 of 2): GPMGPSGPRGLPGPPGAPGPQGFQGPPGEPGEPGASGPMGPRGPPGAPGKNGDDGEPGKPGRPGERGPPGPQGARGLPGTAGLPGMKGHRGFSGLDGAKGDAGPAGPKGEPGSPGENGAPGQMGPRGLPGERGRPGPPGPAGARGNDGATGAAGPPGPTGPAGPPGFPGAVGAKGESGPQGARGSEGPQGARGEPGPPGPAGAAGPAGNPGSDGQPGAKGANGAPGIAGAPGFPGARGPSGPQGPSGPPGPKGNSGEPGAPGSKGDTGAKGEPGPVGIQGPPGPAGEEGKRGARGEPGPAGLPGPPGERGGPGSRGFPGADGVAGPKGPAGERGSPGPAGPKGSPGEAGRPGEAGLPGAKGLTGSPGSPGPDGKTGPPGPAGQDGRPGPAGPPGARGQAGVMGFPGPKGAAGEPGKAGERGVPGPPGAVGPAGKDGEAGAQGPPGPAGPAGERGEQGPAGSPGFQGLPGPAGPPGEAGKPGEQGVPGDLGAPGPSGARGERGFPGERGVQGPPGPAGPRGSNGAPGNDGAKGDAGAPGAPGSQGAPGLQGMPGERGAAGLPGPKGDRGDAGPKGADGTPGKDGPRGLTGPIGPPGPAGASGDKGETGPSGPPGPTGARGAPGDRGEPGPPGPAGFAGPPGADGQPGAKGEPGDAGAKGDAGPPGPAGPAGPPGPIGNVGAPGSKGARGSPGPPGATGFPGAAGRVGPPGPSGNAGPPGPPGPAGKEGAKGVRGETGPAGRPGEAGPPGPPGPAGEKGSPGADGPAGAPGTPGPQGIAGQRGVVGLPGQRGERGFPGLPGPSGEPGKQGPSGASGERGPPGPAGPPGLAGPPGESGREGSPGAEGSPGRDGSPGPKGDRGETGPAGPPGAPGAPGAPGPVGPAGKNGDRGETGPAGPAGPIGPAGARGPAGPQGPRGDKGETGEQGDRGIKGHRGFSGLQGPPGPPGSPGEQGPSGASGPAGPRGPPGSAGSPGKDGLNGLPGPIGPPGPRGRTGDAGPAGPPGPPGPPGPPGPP
Sequence of collagen I (Guinea pig dermis) (Guinea pig) (partner, as listed by the source, chain 2 of 2): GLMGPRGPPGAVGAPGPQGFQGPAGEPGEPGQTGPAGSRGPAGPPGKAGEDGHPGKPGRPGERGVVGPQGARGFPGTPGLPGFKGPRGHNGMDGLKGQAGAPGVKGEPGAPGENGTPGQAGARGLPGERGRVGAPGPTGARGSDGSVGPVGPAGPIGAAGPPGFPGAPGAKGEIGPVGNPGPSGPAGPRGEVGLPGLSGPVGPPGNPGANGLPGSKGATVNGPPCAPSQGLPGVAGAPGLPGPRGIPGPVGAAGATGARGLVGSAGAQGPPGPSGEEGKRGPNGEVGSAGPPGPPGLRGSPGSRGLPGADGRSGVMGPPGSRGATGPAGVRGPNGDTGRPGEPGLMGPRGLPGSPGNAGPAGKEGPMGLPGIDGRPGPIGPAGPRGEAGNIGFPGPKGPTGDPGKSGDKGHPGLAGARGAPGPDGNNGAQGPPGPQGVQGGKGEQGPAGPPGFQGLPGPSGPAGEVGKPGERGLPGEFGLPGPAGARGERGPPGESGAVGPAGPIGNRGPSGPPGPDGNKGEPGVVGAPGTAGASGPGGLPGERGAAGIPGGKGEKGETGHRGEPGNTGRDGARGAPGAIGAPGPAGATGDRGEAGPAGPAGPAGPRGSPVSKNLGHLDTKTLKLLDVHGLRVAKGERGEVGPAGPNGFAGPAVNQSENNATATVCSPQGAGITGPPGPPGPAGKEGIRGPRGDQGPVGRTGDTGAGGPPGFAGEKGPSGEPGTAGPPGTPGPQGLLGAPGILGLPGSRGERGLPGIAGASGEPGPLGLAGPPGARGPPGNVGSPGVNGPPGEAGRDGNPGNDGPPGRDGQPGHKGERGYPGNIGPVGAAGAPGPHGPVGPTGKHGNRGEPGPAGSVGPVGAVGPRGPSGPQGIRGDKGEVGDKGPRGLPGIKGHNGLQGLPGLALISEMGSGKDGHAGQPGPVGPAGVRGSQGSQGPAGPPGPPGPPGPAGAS

Molecule “mature MMP-3(E200A) (from UniProt P08254 100-477) (enzyme)” has a collagen I fibrillogenesis by turbidity at 500 nm, 37 °C, 1 μM fibrillogenesis-competent collagen I (with telopeptides) with increasing MMP-3(E200A); delay at a ratio of 0.5:1 to collagen I [1] of 50 min.

B1: SPARC: matricellular calcium binding protein, secreted protein acidic and rich in cysteine (protein, UniProt P09486 18-303, looked up)
SPARC: APQQEALPDETEVVEETVAEVTEVSVGANPVQVEVGEFDDGAEETEEEVVAENPCQNHHCKHGKVCELDENNTPMCVCQDPTSCPAPIGEFEKVCSNDNKTFDSSCHFFATKCTLEGTKKGHKLHLDYIGPCKYIPPCLDSELTEFPLRMRDWLKNVLVTLYERDEDNNLLTEKQKLRVKKIHENEKRLEAGDHPVELLARDFEKNYNMYIFPVHWQFGQLDQHPIDGYLSHTELAPLRAPLIPMEHCTTRFFETCDLDNDKYIALDEWAGCFGIKQKDIDKDLVI
For B1, the “Delay of collagen fibrillogenesis relative to MMP-3(E200A)” value (collagen I) is given as “comparably”.
